Measurements from patent US11155586B2, “Cystine knot scaffold platform” (Genentech, Inc., priority 2015, dated 2021).
Positions of bridges follow the written chain, without caps; N, C: chain ends. Non-standard residues stand in square brackets, D forms with d. Residues, ends and D or L forms follow the SMILES beside them. PEG6 = NCCOCCOCCOCCOCCOCCOCCC(=O)O; Pra = C#CC[C@H](N)C(=O)O

How the values were obtained:
hVEGF-A (8-109) = biological target: T1, hVEGF-A (8-109) (Homo sapiens, UniProt P15692); assay: SPR binding assay (BIACORE 3000, 37° C.); conditions: for effect of F8Y mutation on affinity/potency: SPR affinity (Table 37) and cellular IC50 (Table 38), vs variant without F8Y; for kd: Table 37, surface plasmon resonance, VEGF-A
T1 sequence (P15692 34-135 isoform P15692-4): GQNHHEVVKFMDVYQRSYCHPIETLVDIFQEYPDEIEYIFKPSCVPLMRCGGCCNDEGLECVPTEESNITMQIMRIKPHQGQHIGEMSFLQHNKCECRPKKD
Procedure: Depending on the format of the assay either a streptavidin sensor (SA) or a dextran-coated (CM5) sensor was utilized as described below.
For use with the SA sensor, VEGF-A was first biotinylated (no more than 2 biotin/VEGF-A) by incubating the protein with EZ-link NHS-PEG4-Biotin (Pierce) in a 1:1.5 molar ratio respectively, in PBS for 2 hours on ice. Reaction was then quenched by addition of 10 molar excess of Glycine pH 8.0 and the sample was buffer exchanged into PBS using an Amicon 0.5 mL 3000 MWCO ultra-centrifugal filters (EMD Millipore). The biotinylation state of the protein was verified by LC-MS analysis. Biotinylated VEGF-A was then captured on the surface until a resonance unit (RU) signal of about ˜400. For immobilization of VEGF-A on CM5 sensor, the surface was first activated with a mixture of N-ethyl-N′-(3-dimethylaminopropyl)carbodiimide hydrochloride and N-hydroxysuccinimide (EDC/NHS) according to the supplier instructions. VEGF-A was then diluted into coupling buffer (0.1 M Acetate Buffer, pH 5.0) and injected until the signal reached about ˜400 RU followed by a wash with 1 M ethanolamine pH 8.0 to quench remaining activated sites.
Following the capture step, a series of the peptide concentrations were prepared in HBS-EP buffer with matching DMSO concentrations to 0.1% and injected at a flow rate of […]. The resulting sensorgrams were then analyzed using a 1:1 binding model to obtain kinetic data and affinities using Scrubber 2.0 (BioLogic Software).

hVEGF(8-109) = biological target: T2, hVEGF(8-109) (Homo sapiens, UniProt P15692); assay: Spot phage ELISA; type: binding
T2 construct: hVEGF(8-109) or BSA were coated on 384-well MAXISORP™ immunoplates
T2 sequence (P15692 214-315): T1 sequence (P15692 34-135 isoform P15692-4)
Procedure: After four rounds of binding selection, individual phage clones were picked and inoculated into 450 μl 2YT media containing 50 µg/ml Carbenecillin and M13-KO7 helper phage in 96-well blocks, which were grown at 37° C. overnight. The supernatant was analyzed with spot phage ELISA as follows: hVEGF(8-109) or BSA were coated on 384-well MAXISORP™ immunoplates and phage supernatant diluted (1:3) with PBT buffer was added to the wells. The plates were washed and bound phage was detected with anti-M13-HRP followed by TMB substrate. In these assays, phage binding to BSA alone was tested in parallel to assess background binding. Clones whose binding signals for hVEGF-A (8-109) were more than 3 times higher than to BSA (background) were considered positive. Positive clones were subjected to DNA sequence analysis.

[1] = spot phage ELISA signal, EETI-II-based binders against hVEGF-A, Table 19
[2] = loop 2 variants based on VEGF_CKP9.63 framework, Table 27

Molecule	S/N (signal to noise ratio as compared to BSA control) (hVEGF(8-109); Table 27)	ELISA (hVEGF(8-109); [2])	also measured
CC[C@H](C)[C@@H]1NC(=O)[C@H](CC(N)=O)NC(=O)[C@@H](NC(=O)CN)CSSC[C@@H](C(=O)N[C@H](C(=O)N[C@H]2CSSC[C@@H](C(=O)NCC(=O)O)NC(=O)[C@H](CO)NC(=O)[C@H](CCC(N)=O)NC(=O)[C@H](Cc3ccc(O)cc3)NC(=O)[C@H](Cc3ccc(O)cc3)NC(=O)[C@H](CCC(N)=O)NC2=O)C(C)C)NC(=O)CNC(=O)[C@H](C)NC(=O)[C@H](CC(C)C)NC(=O)[C@@H]2CSSC[C@H](NC(=O)CNC(=O)[C@H](Cc3c[nH]c4ccccc34)NC(=O)[C@H](Cc3ccc(O)cc3)NC(=O)[C@@H]3CCCN3C(=O)[C@H](CC(C)C)NC(=O)[C@H](CCSC)NC1=O)C(=O)NCC(=O)N[C@@H](CCC(N)=O)C(=O)N[C@@H](CO)C(=O)N[C@@H](Cc1ccccc1)C(=O)N[C@@H](CCC(=O)O)C(=O)N2 [VEGF_CKP9.54.1.F8Y] (H-GCNIMLPYWGCGQSFECLAGCVCQYYQSCG-OH; disulfide 2-21, 11-17, 23-29 (inferred); N-terminus and C-terminus assumed)	–	–	effect of F8Y mutation on affinity/potency (hVEGF-A (8-109)): modest improvement; kd (hVEGF-A (8-109)): 0.38
C#CC[C@H](N)C(=O)NCCOCCOCCOCCOCCOCCOCCC(=O)N[C@H]1CSSC[C@@H](C(=O)N[C@H](C(=O)N[C@H]2CSSC[C@@H](C(=O)NCC(=O)O)NC(=O)[C@H](CO)NC(=O)[C@H](CCC(N)=O)NC(=O)[C@H](Cc3ccc(O)cc3)NC(=O)[C@H](Cc3ccc(O)cc3)NC(=O)[C@H](CCC(N)=O)NC2=O)C(C)C)NC(=O)CNC(=O)[C@H](C)NC(=O)[C@H](CC(C)C)NC(=O)[C@@H]2CSSC[C@H](NC(=O)CNC(=O)[C@H](Cc3c[nH]c4ccccc34)NC(=O)[C@H](Cc3ccccc3)NC(=O)[C@@H]3CCCN3C(=O)[C@H](CC(C)C)NC(=O)[C@H](CCSC)NC(=O)[C@H]([C@@H](C)CC)NC(=O)[C@H](CC(N)=O)NC1=O)C(=O)NCC(=O)N[C@@H](CCCNC(=N)N)C(=O)N[C@@H](CC(=O)O)C(=O)N[C@@H](Cc1ccccc1)C(=O)N[C@@H](CCC(=O)O)C(=O)N2 [VEGF_CKP9.54.90-Alkyn] (H-[Pra][PEG6]CNIMLPFWGCGRDFECLAGCVCQYYQSCG-OH; disulfide 3-22, 12-18, 24-30; N-terminus and C-terminus assumed)	–	–	kd (hVEGF-A (8-109)): 0.27
CC[C@H](C)[C@@H]1NC(=O)[C@H](CC(N)=O)NC(=O)[C@@H](NC(=O)CN)CSSC[C@@H](C(=O)N[C@H](C(=O)N[C@H]2CSSC[C@@H](C(=O)NCC(=O)O)NC(=O)[C@H](CO)NC(=O)[C@H](CCC(N)=O)NC(=O)[C@H](Cc3ccc(O)cc3)NC(=O)[C@H](Cc3ccc(O)cc3)NC(=O)[C@H](CCC(N)=O)NC2=O)C(C)C)NC(=O)CNC(=O)[C@H](C)NC(=O)[C@H](CC(C)C)NC(=O)[C@@H]2CSSC[C@H](NC(=O)CNC(=O)[C@H](Cc3c[nH]c4ccccc34)NC(=O)[C@H](Cc3ccc(O)cc3)NC(=O)[C@@H]3CCCN3C(=O)[C@H](CC(C)C)NC(=O)[C@H](CCSC)NC1=O)C(=O)NCC(=O)N[C@@H](CCCNC(=N)N)C(=O)N[C@@H](CC(=O)O)C(=O)N[C@@H](Cc1ccccc1)C(=O)N[C@@H](CCC(=O)O)C(=O)N2 [VEGF_CKP9.54.90.F8Y] (H-GCNIMLPYWGCGRDFECLAGCVCQYYQSCG-OH; disulfide 2-21, 11-17, 23-29 (inferred); N-terminus and C-terminus assumed)	–	–	effect of F8Y mutation on affinity/potency (hVEGF-A (8-109)): modest improvement; kd (hVEGF-A (8-109)): 0.27
CC[C@H](C)[C@@H]1NC(=O)[C@H](CCC(=O)O)NC(=O)[C@H](Cc2c[nH]cn2)NC(=O)[C@@H]2CCCN2C(=O)[C@@H]2CCCN2C(=O)[C@H](Cc2c[nH]c3ccccc23)NC(=O)[C@@H]2CCCN2C(=O)[C@H]([C@@H](C)O)NC(=O)[C@H]([C@@H](C)O)NC(=O)[C@@H](NC(=O)CN)CSSC[C@@H]2NC(=O)CNC(=O)[C@H](C)NC(=O)[C@H](CC(C)C)NC(=O)[C@@H]3CSSC[C@@H](C(=O)NCC(=O)O)NC(=O)[C@H](Cc4ccccc4)NC(=O)CNC(=O)[C@H](CC(N)=O)NC(=O)[C@@H]4CCCN4C(=O)CNC(=O)[C@H](CSSC[C@H](NC(=O)[C@H](CCSC)NC1=O)C(=O)N[C@@H](CCCCN)C(=O)N[C@@H](CCC(N)=O)C(=O)N[C@@H](CC(=O)O)C(=O)N[C@@H](CO)C(=O)N[C@@H](CC(=O)O)C(=O)N3)NC(=O)[C@H](C(C)C)NC2=O [VEGF_CKP12] (H-GCTTPWPPHEIMCKQDSDCLAGCVCGPNGFCG-OH; disulfide 2-23, 13-25, 19-31; N-terminus and C-terminus assumed)	–	–	S/N (signal to noise ratio as compared to BSA control) (hVEGF(8-109); Table 19): 55.2; ELISA (hVEGF(8-109); [1]): 3.5
CC[C@H](C)[C@@H]1NC(=O)[C@H](Cc2c[nH]c3ccccc23)NC(=O)[C@H](Cc2c[nH]cn2)NC(=O)[C@@H]2CCCN2C(=O)[C@H](CCCCN)NC(=O)[C@H](Cc2c[nH]c3ccccc23)NC(=O)[C@@H]2CCCN2C(=O)[C@H]([C@@H](C)O)NC(=O)[C@H](C(C)C)NC(=O)[C@@H](NC(=O)CN)CSSC[C@@H]2NC(=O)CNC(=O)[C@H](C)NC(=O)[C@H](CC(C)C)NC(=O)[C@@H]3CSSC[C@@H](C(=O)NCC(=O)O)NC(=O)[C@H](Cc4ccccc4)NC(=O)CNC(=O)[C@H](CC(N)=O)NC(=O)[C@@H]4CCCN4C(=O)CNC(=O)[C@H](CSSC[C@H](NC(=O)[C@H](CC(N)=O)NC1=O)C(=O)N[C@@H](CCCCN)C(=O)N[C@@H](CCC(N)=O)C(=O)N[C@@H](CC(=O)O)C(=O)N[C@@H](CO)C(=O)N[C@@H](CC(=O)O)C(=O)N3)NC(=O)[C@H](C(C)C)NC2=O [VEGF_CKP13] (H-GCVTPWKPHWINCKQDSDCLAGCVCGPNGFCG-OH; disulfide 2-23, 13-25, 19-31; N-terminus and C-terminus assumed)	–	–	S/N (signal to noise ratio as compared to BSA control) (hVEGF(8-109); Table 19): 56.3; ELISA (hVEGF(8-109); [1]): 3.5
GCDVMQPYWGCAGDELCLAGCVCHWYNSCG [VEGF_CKP9.63.30]	26.0	2.0	–
GCDVMQPYWGCAGDFECLAGCVCHWYNSCG [VEGF_CKP9.63.42]	23.1	1.7	–
GCDVMQPYWGCDGDFDCLAGCVCHWYNSCG [VEGF_CKP9.63.39]	18.9	1.6	–
GCDVMQPYWGCDGDYQCLAGCVCHWYNSCG [VEGF_CKP9.63.18]	17.3	2.3	–
GCDVMQPYWGCDLNYECLAGCVCHWYNSCG [VEGF_CKP9.63.87]	8.6	0.9	–
GCDVMQPYWGCGADLSCLAGCVCHWYNSCG [VEGF_CKP9.63.62]	25.4	1.8	–
GCDVMQPYWGCGDDLECLAGCVCHWYNSCG [VEGF_CKP9.63.14]	21.3	1.5	–
GCDVMQPYWGCGENLACLAGCVCHWYNSCG [VEGF_CKP9.63.54]	19.9	1.4	–
GCDVMQPYWGCGFDMDCLAGCVCHWYNSCG [VEGF_CKP9.63.65]	27.1	2.0	–
GCDVMQPYWGCGLDEECLAGCVCHWYNSCG [VEGF_CKP9.63.37]	8.6	0.6	–
GCDVMQPYWGCGMDIECLAGCVCHWYNSCG [VEGF_CKP9.63.16]	10.3	2.2	–
GCDVMQPYWGCGNDVSCLAGCVCHWYNSCG [VEGF_CKP9.63.24]	20.4	1.6	–
GCDVMQPYWGCGNSFECLAGCVCHWYNSCG [VEGF_CKP9.63.47]	20.7	1.7	–
GCDVMQPYWGCGQDLTCLAGCVCHWYNSCG [VEGF_CKP9.63.50]	12.7	0.9	–
GCDVMQPYWGCGQDYNCLAGCVCHWYNSCG [VEGF_CKP9.63.56]	8.4	1.8	–
GCDVMQPYWGCGRDLQCLAGCVCHWYNSCG [VEGF_CKP9.63.2]	15.0	2.0	–
GCDVMQPYWGCGVDLSCLAGCVCHWYNSCG [VEGF_CKP9.63.3]	20.7	1.7	–
GCDVMQPYWGCGVDMTCLAGCVCHWYNSCG [VEGF_CKP9.63.15]	21.4	1.5	–
GCQLMQPFWGCKQDSDCLAGCVCHWYQSCG [VEGF_CKP9.L5.18]	–	–	S/N (signal to noise ratio as compared to BSA control) (hVEGF(8-109); Table 23): 20.4; ELISA (hVEGF(8-109); VEGF_CKP9 Loop5 affinity-matured variants, Table 23): 1.6
